For series [1], the target named is SecA (wild type) (E. coli) (UniProt P10408).
Series [2] concerns the target SecA_(795Fl), SecA_(A795C) labelled with 5-iodoacetamidofluorescein (E. coli) (UniProt P10408). Kind of series: other fluorescence titration.
The target in series [3] is SecA-SecYEG complex with SecYE_(L106C)G cross-linked (106X, back-to-back dimer) in proteoliposomes (E. coli) (UniProt P10408).
Series [4] has as its target SecA-SecYEG complex with SecYE_(L106C)G uncross-linked (106) in proteoliposomes (E. coli) (UniProt P10408).
The series “cross-linking” deals with the molecule itself. Description: cross-linking.
In series [5] the target is T1, SecY subunit (within wild-type SecYEG) (E. coli, UniProt P0AGA2 1-443).
T1 sequence: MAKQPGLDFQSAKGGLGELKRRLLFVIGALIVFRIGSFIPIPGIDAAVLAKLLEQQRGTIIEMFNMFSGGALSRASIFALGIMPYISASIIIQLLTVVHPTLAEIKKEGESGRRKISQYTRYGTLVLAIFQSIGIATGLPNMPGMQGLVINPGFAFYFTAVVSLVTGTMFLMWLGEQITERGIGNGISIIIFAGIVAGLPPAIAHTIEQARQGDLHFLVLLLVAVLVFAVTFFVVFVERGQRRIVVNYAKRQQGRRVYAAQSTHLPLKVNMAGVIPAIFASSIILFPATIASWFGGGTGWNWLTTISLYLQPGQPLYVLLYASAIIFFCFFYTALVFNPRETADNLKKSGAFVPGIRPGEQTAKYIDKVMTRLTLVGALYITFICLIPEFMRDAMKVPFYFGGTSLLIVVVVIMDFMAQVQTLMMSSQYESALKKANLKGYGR
Description: cross-linking.

For series [6], the target named is SecA-SecYEG complex (wild-type SecYEG in proteoliposomes with SecA) (E. coli, UniProt P10408;P0AGA2;P0AG96;P0AG99).

For the molecule “SecYE_(L106C)G cross-linked (106X), back-to-back dimer (from UniProt P0AGA2;P0AG96;P0AG99) (complex)”, the Kd is 78 nM in series [1] and under 1 nM in series [2].
With “proOmpA (full-length, wild type) (from UniProt P0A910 1-346) (natural protein)”, the Kd in series [3] was found to be 92 nM; in series [4], 93 nM.

B1: SecE subunit (within wild-type SecYEG) (natural protein)
chain: MSANTEAQGSGRGLEAMKWVVVVALLLVAIVGNYLYRDIMLPLRALAVVILIAAAGGVALLTTKGKATVAFAREARTEVRKVIWPTRQETLHTTLIVAAVTAVMSLILWGLDGILVRLVSFITGLRF
Turning to B1, the binding result (in “cross-linking”; in series [5]) was “binds” in each case.

B2: proOmpA (full-length, wild type) (natural protein)
chain: MKKTAIAIAVALAGFATVAQAAPKDNTWYTGAKLGWSQYHDTGFINNNGPTHENQLGAGAFGGYQVNPYVGFEMGYDWLGRMPYKGSVENGAYKAQGVQLTAKLGYPITDDLDIYTRLGGMVWRADTKSNVYGKNHDTGVSPVFAGGVEYAITPEIATRLEYQWTNNIGDAHTIGTRPDNGMLSLGVSYRFGQGEAAPVVAPAPAPAPEVQTKHFTLKSDVLFNFNKATLKPEGQAALDQLYSQLSNLDPKDGSVVVLGYTDRIGSDAYNQGLSERRAQSVVDYLISKGIPADKISARGMGESNPVTGNTCDNVKQRAALIDCLAPDRRVEIEVKGIKDVVTQPQA
In series [6], B2 yielded a Kd of 72 ± 41 nM.

(Values after PMC3039378 (The Journal of Biological Chemistry, 2010).)
